Measured values: article PMC8546555, “Colicin-Mediated Transport of DNA through the Iron Transporter FepA” (mBio, 2021)

Target: T1, FepA overexpressed from pBAD/Myc-HisB (E. coli, UniProt P05825 23-746)
T1 construct: FepA, outer membrane ferric enterobactin transporter of E. coli; source: E. coli BW25113 ΔFepA (JW5086-3) or BL21(DE3), pBAD/Myc-HisB, overexpressed; on live cells, or in a detergent-extracted OM protein fraction
T1 sequence: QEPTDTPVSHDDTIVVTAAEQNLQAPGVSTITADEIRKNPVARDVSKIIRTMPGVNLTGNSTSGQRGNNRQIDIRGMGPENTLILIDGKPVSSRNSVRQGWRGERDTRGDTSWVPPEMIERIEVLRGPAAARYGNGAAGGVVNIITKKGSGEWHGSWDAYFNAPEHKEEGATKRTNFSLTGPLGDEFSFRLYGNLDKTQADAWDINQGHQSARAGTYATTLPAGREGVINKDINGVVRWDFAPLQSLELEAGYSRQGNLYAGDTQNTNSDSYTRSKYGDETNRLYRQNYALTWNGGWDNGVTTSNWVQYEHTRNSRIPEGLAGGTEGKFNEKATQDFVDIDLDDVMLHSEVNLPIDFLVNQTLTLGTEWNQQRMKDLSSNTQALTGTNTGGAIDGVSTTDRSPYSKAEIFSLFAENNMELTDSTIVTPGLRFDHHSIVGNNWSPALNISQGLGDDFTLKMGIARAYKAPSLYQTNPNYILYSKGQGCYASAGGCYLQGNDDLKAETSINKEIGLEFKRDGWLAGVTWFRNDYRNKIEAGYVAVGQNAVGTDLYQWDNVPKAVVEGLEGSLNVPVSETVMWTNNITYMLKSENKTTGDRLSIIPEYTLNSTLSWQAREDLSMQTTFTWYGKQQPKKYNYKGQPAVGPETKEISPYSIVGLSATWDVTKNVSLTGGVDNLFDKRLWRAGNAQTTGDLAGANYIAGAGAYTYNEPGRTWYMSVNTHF
Experiment: native MS; 60 mg ColB-RT added to a 5-liter culture of BW25113(ΔFepA) cells overexpressing FepA; complex detergent extracted, purified by nickel affinity and size exclusion chromatography; 100 mM ammonium acetate, 1% β-OG, pH 6.9
Conditions: one partner purified

B1: ColB-RT (341 aa) (domain or fragment)
chain: MSDNEGSVPTEGIDYGDTMVVWPSTGRIPGGDVKPGGSSGLAPSMPPGWGDYSPQGIALVQSVLFPGIIRRIILDKELEEGDWSGWSVSVHSPWGNEKVSAARTVLENGLRGGLPEPSRPAAVSFARLEPASGNEQKIIRLMVTQQLEQVTDIPASQLPAAGNNVPVKYRLTDLMQNGTQYMAIIGGIPMTVPVVDAVPVPDRSRPGTNIKDVYSAPVSPNLPDLVLSVGQMNTPVRSNPEIQEDGVISETGNYVEAGYTMSSNNHDVIVRFPEGSGVSPLYISAVEILDSNSLSQRQEAENNAKDDFRVKKEQENDEKTVLTKTSEVIISVGDKVGEYLG
notes: not shown: His6, C-terminal, kept
stoichiometry N: 1
